This passage reports protein stability index results from the supplement of paper PMC10567573.

To fix the notation:
B1: INTS4 (parent)
chain: YSSGEFSSGRKWGDDAPKEEVDTG
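Also: lentivirally expressed fusions sorted by FACS into six bins by GFP to DsRed ratio, PSI derived from sequencing read proportions per bin multiplied by bin number.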

In the series the parent is B1. Kind of series: protein stability index of a GFP-peptide fusion (GPS, HEK-293T) (PSI 1-6); higher = more stable. The note with it: c terminus: a fixed tail appended.
For YSSGEFSSGRKWGDDAPKEESDTG, the protein stability index came to 2.54.
As for YSSGEFSSGRKWGDDAPKEEPDTG, the protein stability index was 3.13.
Then YSSGEFSSGRKWGDDAPKEELDTG, with 2.28; and YSSGEFSSGRKWGDDAPKEEGDTG, with 2.94.
The value for YSSGEFSSGRKWGDDAPKEEWDTG was 1.82.
Then YSSGEFSSGRKWGDDAPKEEIDTG, with 2.27.
With YSSGEFSSGRKWGDDAPKEEYDTG, the protein stability index is 2.74.
As for YSSGEFSSGRKWGDDAPKEETDTG, the protein stability index was determined as 3.31.
The value for YSSGEFSSGRKWGDDAPKEEEDTG was 2.84; that for YSSGEFSSGRKWGDDAPKEERDTG was 2.83.
Turning to YSSGEFSSGRKWGDDAPKEENDTG, the protein stability index was determined as 2.81.
With YSSGEFSSGRKWGDDAPKEEDDTG, the protein stability index was determined as 2.92.
YSSGEFSSGRKWGDDAPKEEKDTG: the protein stability index worked out at 2.8.
The value for YSSGEFSSGRKWGDDAPKEEFDTG was 2.58.
As for YSSGEFSSGRKWGDDAPKEEHDTG, the protein stability index is 2.74.
YSSGEFSSGRKWGDDAPKEECDTG: the protein stability index was determined as 3.39.
Then YSSGEFSSGRKWGDDAPKEEMDTG, with 2.78; and YSSGEFSSGRKWGDDAPKEEQDTG, with 2.73.
The value for YSSGEFSSGRKWGDDAPKGEVDTG was 2.48; that for YSSGEFSSGRKWGDDAPKTEVDTG was 2.72; that for YSSGEFSSGRKWGDDAPKDEVDTG was 2.74.
The value for YSSGEFSSGRKWGDDAPKREVDTG was 1.75; that for YSSGEFSSGRKWGDDAPKKEVDTG was 2.
On to YSSGEFSSGRKWGDDAPKAEVDTG, for which the protein stability index is 2.67.
Then YSSGEFSSGRKWGDDAPKFEVDTG, with 2.97; and YSSGEFSSGRKWGDDAPKIEVDTG, with 2.32; and YSSGEFSSGRKWGDDAPKLEVDTG, with 1.94.
As to YSSGEFSSGRKWGDDAPKNEVDTG, the protein stability index was found to be 2.52.
The value for YSSGEFSSGRKWGDDAPKSEVDTG was 2.26; that for YSSGEFSSGRKWGDDAPKMEVDTG was 2.93.
Then YSSGEFSSGRKWGDDAPKPEVDTG, with 2.3; and YSSGEFSSGRKWGDDAPKVEVDTG, with 1.84.
The value for YSSGEFSSGRKWGDDAPKQEVDTG was 2.95; that for YSSGEFSSGRKWGDDAPKYEVDTG was 1.74.
Turning to YSSGEFSSGRKWGDDAPKCEVDTG, the protein stability index was determined as 2.37.
The value for YSSGEFSSGRKWGDDAPKHEVDTG was 2.09; that for YSSGEFSSGRKWGDDAPKEEVDQG was 2.15; that for YSSGEFSSGRKWGDDAPKEEVDYG was 2.36.
With YSSGEFSSGRKWGDDAPKEEVDGG, the protein stability index was determined as 2.81.
The value for YSSGEFSSGRKWGDDAPKEEVDSG was 2.67; that for YSSGEFSSGRKWGDDAPKEEVDDG was 2.96.
Regarding YSSGEFSSGRKWGDDAPKEEVDKG, the protein stability index was determined as 2.46.
The value for YSSGEFSSGRKWGDDAPKEEVDVG was 2.39.
Then YSSGEFSSGRKWGDDAPKEEVDEG, with 2.8; and YSSGEFSSGRKWGDDAPKEEVDAG, with 2.35; and YSSGEFSSGRKWGDDAPKEEVDHG, with 2.35.
The value for YSSGEFSSGRKWGDDAPKEEVDNG was 2.35.
On to YSSGEFSSGRKWGDDAPKEEVDRG, for which the protein stability index was 2.96.
The value for YSSGEFSSGRKWGDDAPKEEVDCG was 2.95.
In the case of YSSGEFSSGRKWGDDAPKEEVDPG, the protein stability index came out at 1.9.
The value for YSSGEFSSGRKWGDDAPKEEVDMG was 1.99.
Then YSSGEFSSGRKWGDDAPKEEVDIG, with 2.3.
In the case of YSSGEFSSGRKWGDDAPKEEVDWG, the protein stability index came to 2.05.
Then YSSGEFSSGRKWGDDAPKEEVDFG, with 2.47.
Then YSSGEFSSGRKWGDDAPKEEVDLG, with 2.9; and YSSGEFSSGRKWGDDAPKEEVHTG, with 2.48; and YSSGEFSSGRKWGDDAPKEEVMTG, with 1.63.
In the case of YSSGEFSSGRKWGDDAPKEEVKTG, the protein stability index worked out at 1.65.
The value for YSSGEFSSGRKWGDDAPKEEVLTG was 2.27; that for YSSGEFSSGRKWGDDAPKEEVRTG was 2.73; that for YSSGEFSSGRKWGDDAPKEEVITG was 2.66.
The value for YSSGEFSSGRKWGDDAPKEEVVTG was 1.86; that for YSSGEFSSGRKWGDDAPKEEVTTG was 2.34; that for YSSGEFSSGRKWGDDAPKEEVETG was 2.72.
The value for YSSGEFSSGRKWGDDAPKEEVQTG was 2.71; that for YSSGEFSSGRKWGDDAPKEEVSTG was 2.17; that for YSSGEFSSGRKWGDDAPKEEVWTG was 1.64.
YSSGEFSSGRKWGDDAPKEEVPTG: the protein stability index came to 2.38.
Then YSSGEFSSGRKWGDDAPKEEVCTG, with 2.67; and YSSGEFSSGRKWGDDAPKEEVGTG, with 2.35; and YSSGEFSSGRKWGDDAPKEEVNTG, with 2.74.
The value for YSSGEFSSGRKWGDDAPKEEVATG was 2.06; that for YSSGEFSSGRKWGDDAPKEEVYTG was 2.02.
Regarding YSSGEFSSGRKWGDDAPKEEVFTG, the protein stability index is 3.28.
The value for YSSGEFSSGRKWGDDAPQEEVDTG was 2.92; that for YSSGEFSSGRKWGDDAPNEEVDTG was 2.96.
The value for YSSGEFSSGRKWGDDAPWEEVDTG was 2.88; that for YSSGEFSSGRKWGDDAPIEEVDTG was 2.73.
Then YSSGEFSSGRKWGDDAPEEEVDTG, with 3.84; and YSSGEFSSGRKWGDDAPDEEVDTG, with 3.16; and YSSGEFSSGRKWGDDAPYEEVDTG, with 2.62.
YSSGEFSSGRKWGDDAPLEEVDTG: the protein stability index worked out at 2.49.
The value for YSSGEFSSGRKWGDDAPFEEVDTG was 4.04; that for YSSGEFSSGRKWGDDAPREEVDTG was 3.13.
In the case of YSSGEFSSGRKWGDDAPHEEVDTG, the protein stability index amounted to 2.83.
The value for YSSGEFSSGRKWGDDAPPEEVDTG was 3.08.
Then YSSGEFSSGRKWGDDAPSEEVDTG, with 3.16; and YSSGEFSSGRKWGDDAPTEEVDTG, with 2.56; and YSSGEFSSGRKWGDDAPMEEVDTG, with 2.82.
Then YSSGEFSSGRKWGDDAPGEEVDTG, with 3.44.
On to YSSGEFSSGRKWGDDAPVEEVDTG, for which the protein stability index is 2.81.
The value for YSSGEFSSGRKWGDDAPKEQVDTG was 2.6; that for YSSGEFSSGRKWGDDAPKENVDTG was 2.35; that for YSSGEFSSGRKWGDDAPKEGVDTG was 2.17.
